# Source: patent US20220406376A1 (MacroGenics, published 2022)
# How the values were obtained:
# [1] = biological target: T1, CD137 on the surface of cells (activated human T cells; engineered CHO cells) (human, UniProt Q07011 24-255); assay: flow cytometry on activated pan T cells (donor D46433, CD8 PE), anti-hFc APC MFI
# T1 construct: whole, on cells; also called human CD137; cell surface expressed CD137
# [2] = biological target: T1, CD137 on the surface of cells …; assay: flow cytometry on CD137-expressing CHO cells (CHO/137), anti-hFc APC MFI
# [3] = biological target: T2, extracellular portion of cynomolgus monkey CD137 fused to a histidine-containing peptide (cynomolgus monkey, UniProt A9YYE7 24-186); assay: SPR (BIACORE); molecule captured on anti-human Fc; cynoCD137 6.25-100 nM; column head ×10^-4 applied as printed
# T2 construct: extracellular domain; also called cynoCD137
# T2 sequence: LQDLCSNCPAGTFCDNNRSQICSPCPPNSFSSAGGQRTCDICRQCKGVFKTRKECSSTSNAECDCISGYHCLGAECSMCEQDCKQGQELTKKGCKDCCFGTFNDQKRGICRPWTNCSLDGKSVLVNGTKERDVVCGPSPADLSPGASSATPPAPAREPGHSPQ
# Experimental: (§1) The amino acid sequences of these clones were incorporated into the 5 chain diabody DART-G to yield optimized DART-G molecules (designated as DART-G1, DART-G2; DART-G3, and DART-G4). The binding affinity of DART-G2, DART-G3, and DART-G4 were evaluated via BIAcore (Table 11). For such evaluation, His-tagged soluble human CD137 (huCD137) or cynomolgus monkey CD137 (cynoCD137) (containing an extracellular portion of human or cynomolgus monkey CD137 fused to a histidine-containing peptide) was passed over a surface coated with immobilized antibody. Briefly, each test molecule was captured onto an F(ab)₂ goat-anti-human Fc-coated surface and then incubated in the presence of different concentrations (6.25-100 nM) of huCD137 or cynoCD137. The kinetics of binding were determined via BIACORE® analysis binding (normalized 1:1 Langmuir binding model).
# [4] = biological target: T1, CD137 on the surface of cells …; assay: flow cytometry on CD137-expressing CHO cells (CHO/137), anti-hFc APC MFI; remark: listed apart in the source
# [5] = biological target: T1, CD137 on the surface of cells …; assay: flow cytometry on activated CD8+ T cells (CD8 FITC), anti-hFc APC MFI
# [6] = biological target: T3, HER2/neu on the surface of target cells (N87, JIMT-1, MCF-7, MDA-MB231) (UniProt P04626 23-1255, limits assumed); assay: flow cytometry on N87 cells, anti-hFc APC MFI
# T3 construct: whole, on cells
# [7] = biological target: T2, extracellular portion of cynomolgus …; assay: SPR (BIACORE); molecule captured on anti-human Fc; cynoCD137 6.25-100 nM; 1:1 Langmuir
# Experimental: as §1
# [8] = biological target: T3, HER2/neu on the surface of target cells …; assay: flow cytometry on JIMT-1 cells, anti-hFc APC MFI
# Experimental: (§2) CD137×TA Binding Molecules, DART-B, DART-D, DART-G and the control molecules DART-3 and DART-6 were additionally evaluated for their ability to bind to HER2/neu expressed on N87 cells (FIG. 13A) and JIMT-1 cells (FIG. 13B). For such evaluation, 100 μL of HER2/neu expressing target cells (1.0×1⁰⁶ cells/mL) and 100 μL of serially diluted (5- or 10-fold dilutions) test article (bispecific diabody) were added to each well of microtiter assay plate(s), mixed and incubated at RT for 45 min. The cells were washed with FACS Buffer and secondary antibody (anti-human-Fc region-APC) was then added to each well; mixed and incubated at RT for 30 min. Cells were washed and resuspended in 100 μL FACS Buffer and analyzed by flow cytometry (BD LSR Fortessa or FACSCanto 11) for cell event collection. Data analysis were performed via FloJo v10.
# [9] = biological target: T3, HER2/neu on the surface of target cells …; assay: flow cytometry on JIMT-1 cells, anti-hFc APC MFI; remark: listed apart in the source
# [10] = biological target: T4, extracellular portion of human CD137 fused to a histidine-containing peptide (human, UniProt Q07011 24-186); assay: SPR (BIACORE); molecule captured on anti-human Fc; huCD137 6.25-100 nM; 1:1 Langmuir
# T4 construct: extracellular domain; also called huCD137; His-tagged soluble human CD137
# Experimental: as §1
# [11] = biological target: T3, HER2/neu on the surface of target cells …; assay: flow cytometry on MCF-7 cells, anti-hFc APC MFI
# [12] = biological target: T3, HER2/neu on the surface of target cells …; assay: flow cytometry on N87 cells, anti-hFc APC MFI; remark: listed apart in the source
# Experimental: as §2
# [13] = biological target: T1, CD137 on the surface of cells …; assay: flow cytometry on activated CD8+ T cells (donor D53781, CD8 FITC), anti-hFc APC MFI
# T1 sequence (Q07011 24-255, change not shown): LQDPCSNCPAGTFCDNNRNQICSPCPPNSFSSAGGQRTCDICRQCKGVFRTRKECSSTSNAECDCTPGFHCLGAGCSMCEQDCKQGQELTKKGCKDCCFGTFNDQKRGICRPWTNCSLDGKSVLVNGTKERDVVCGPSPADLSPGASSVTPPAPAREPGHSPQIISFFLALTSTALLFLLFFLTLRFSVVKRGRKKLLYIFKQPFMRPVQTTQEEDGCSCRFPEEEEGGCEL
binder,measurement,setting,value
"DART-G (bispecific antibody, human IgG1, kappa, L234A L235A) heavy: QVQLVQSGAEVKKPGASVKVSCKASGYTFTNYGMNWVRQAPGQGLEWMGWINTNIGEPTYTEEFKGRVTMTRDTSISTAYMELSRLRSDDTAVYYCARDDGYGNRVSYWGQGTLVTVSSASTKGPSVFPLAPSSKSTSGGTAALGCLVKDYFPEPVTVSWNSGALTSGVHTFPAVLQSSGLYSLSSVVTVPSSSLGTQTYICNVNHKPSNTKVDKRVEPKSCDKTHTCPPCPAPEAAGGPSVFLFPPKPKDTLMISRTPEVTCVVVDVSHEDPEVKFNWYVDGVEVHNAKTKPREEQYNSTYRVVSVLTVLHQDWLNGKEYKCKVSNKALPAPIEKTISKAKGQPREPQVYTLPPSREEMTKNQVSLSCAVKGFYPSDIAVEWESNGQPENNYKTTPPVLDSDGSFFLVSKLTVDKSRWQQGNVFSCSVMHEALHNRYTQKSLSLSPGK light: DIQMTQSPSSLSASVGDRVTITCKASQDISNYLSWFQQKPGKAPKTLIYRANRLQSGVPSRFSGSGSGTDFTLTISSLQPEDFATYYCLQHDEFPWTFGQGTKLEIKRTVAAPSVFIFPPSDEQLKSGTASVVCLLNNFYPREAKVQWKVDNALQSGNSQESVTEQDSKDSTYSLSSTLTLSKADYEKHKVYACEVTHQGLSSPVTKSFNRGEC chain 1: QVQLVQSGAEVKKPGASVKVSCKASGYTFTNYGMNWVRQAPGQGLEWMGWINTNIGEPTYTEEFKGRVTMTRDTSISTAYMELSRLRSDDTAVYYCARDDGYGNRVSYWGQGTLVTVSSASTKGPSVFPLAPSSKSTSGGTAALGCLVKDYFPEPVTVSWNSGALTSGVHTFPAVLQSSGLYSLSSVVTVPSSSLGTQTYICNVNHKPSNTKVDKRVEPKSCDKTHTCPPCPAPEAAGGPSVFLFPPKPKDTLMISRTPEVTCVVVDVSHEDPEVKFNWYVDGVEVHNAKTKPREEQYNSTYRVVSVLTVLHQDWLNGKEYKCKVSNKALPAPIEKTISKAKGQPREPQVYTLPPSREEMTKNQVSLWCLVKGFYPSDIAVEWESNGQPENNYKTTPPVLDSDGSFFLYSKLTVDKSRWQQGNVFSCSVMHEALHNHYTQKSLSLSPGGGGSGGGSGGGDIQMTQSPSSLSASVGDRVTITCRPSQDISNYLNWYQQKPDKTVKLLIYYTSRLRSGVPSRFSGSGSGTDFTFTISSLQPEDIATYFCQQGDTLPYTFGQGTKLEIKGGGSGGGGQVQLVQSGAEVKKPGASVKVSCKASGYTFTSYWINWVKQAPGQGLEWIGNIYPSDSYTNYNQKFKDKATITADKSTSTAYMELSSLRSEDTAVYYCTRDYGSSYSFDYWGQGTTVTVSSGGCGGGEVAALEKEVAALEKEVAALEKEVAALEK chain 2: DIQMTQSPSSLSASVGDRVTITCRPSQDISNYLNWYQQKPDKTVKLLIYYTSRLRSGVPSRFSGSGSGTDFTFTISSLQPEDIATYFCQQGDTLPYTFGQGTKLEIKGGGSGGGGQVQLVQSGAEVKKPGASVKVSCKASGYTFTSYWINWVKQAPGQGLEWIGNIYPSDSYTNYNQKFKDKATITADKSTSTAYMELSSLRSEDTAVYYCTRDYGSSYSFDYWGQGTTVTVSSGGCGGGKVAALKEKVAALKEKVAALKEKVAALKE",EC50 (read off the curve),[1],~0.1 nM
same,EC50 (read off the curve),[2],~0.02 µg/mL
same,koff,[3],0.045 s⁻¹
same,EC50 (read off the curve),[4],~0.02 µg/mL
same,EC50 (read off the curve),[5],~0.03 µg/mL
same,EC50 (read off the curve),[6],~0.5 nM
same,Kd,[7],115 nM
same,kon,[7],390000 M⁻¹ s⁻¹
same,EC50 (read off the curve),[8],~0.04 µg/mL
same,EC50 (read off the curve),[9],~0.2 nM
same,Kd,[10],114 nM
same,koff,[10],0.042 s⁻¹
same,kon,[10],370000 M⁻¹ s⁻¹
same,EC50 (read off the curve),[11],~0.09 nM
same,EC50 (read off the curve),[12],~0.1 µg/mL
same,EC50 (read off the curve),[13],~0.03 µg/mL
